Assay results as given in US20200016207A1, “[…] c-MPL PROVIDES LIGAND-DEPENDENT CO-STIMULATION AND CYTOKINE SIGNALS TO TCR-ENGINEERED T CELLS” (Baylor College of Medicine, priority 2017, published 2020).

B1: thrombopoietin (protein)
chain: SPAPPACDLRVLSKLLRDSHVLHSRLSQCPEVHPLPTPVLLPAVDFSLGEWKTQMEETKAQDILGAVTLLLEGVMAARGQLGPTCLSSLLGQLSGQVRLLLGALQSLLGTQLPPQGRTTAHKDPNAIFLSFQHLLRGKVRFLMLVGGSTLCVRRAPPTTAVPSRTSLVLTLNEL
notes: recombinant human thrombopoietin, ligand of c-MPL

Key:
[1] = molecular target: hematopoietic growth factor receptor c-MPL (myeloproliferative leukemia), the receptor for thrombopoietin, transgenic on human T cells (Homo sapiens (Human)) (UniProt P40238); assay: cell-based or functional assay
[2] = system: TCR+ T cells; assay: Antigen-specific expansion with survivin peptide-pulsed aAPCs, TCR+ T cells; assay type: cell-based, human; settings: IL-2 50 U/mL; rhTPO up to 500 ng/ml
Procedure: At the end of the first stimulation (7 days), cells were collected, counted, phenotyped and re-stimulated with fresh peptide-pulsed aAPCs under the same conditions. Fold expansion was recorded at the end of the second stimulation.

[3] = system: BV173 leukemia cells; assay: Co-culture of TCR+c-MPL+ T cells with BV173 leukemia cells; assay type: cell-based, human; settings: day 5, E:T 1:3; rhTPO 50 ng/ml, IL2 25 U/ml; noCK 16.7±8.1×10^4
Procedure: (§1) Cells were stained ith antibodies and analyzed by flow cytometry. Cells were stained with FITC-, phycoerythrin- (PE-), peridinin chlorophyll protein-(PerCP-), or allophycocyanin-conjugated (APC-conjugated) antibodies (Abs) against CD3, CD4, CD8, CD110 (c-MPL), murine TCR constant region (mCβ, ebioscience), CD19, or CD138. Cell viability was assessed by 7-AAD staining. T cells and tumor cell populations from co-culture assays were quantified by adding CountBright Beads (Invitrogen) to the analysis. T cell memory marker expression on CD8+ T cells re-covered from co-cultures was analyzed by staining cells with FITC-, PE-, ECD-, PerCP-, APC-, APC-AF750, or V450-conjugated Abs against CD45RO, CD45RA, CD62L, CCR7, CD110, mCβ, CD19, and 7AAD. Intracellular staining for phosphoproteins pSTAT3 and pSTAT5 was performed with PE- and Pacific Blue-conjugated Abs and Phosflow reagents (BD). To assess cell proliferation, cells were labeled with Carboxyfluorescein succinimidyl ester (CFSE, ThermoFisher) and analyzed after 7 days of culture. All antibodies were purchased from BD or Beckman Coulter unless otherwise indicated, and all staining procedures were performed according to the manufacturer's recommendation. Data acquisition was performed on a BD FACSCalibur using CellQuest software or a Beckman Coulter Gallios flow cytometer using Kaluza software. […]

[4] = system: U266 myeloma cells; assay: Co-culture of TCR+c-MPL+ T cells with U266 myeloma cells; assay type: cell-based, human; settings: rhTPO 50 ng/ml, IL2 25 U/ml, n=3
Procedure: as §1

[5] = system: c-MPL+ cells; assay: c-MPL ligand-dependent STAT3/STAT5 phosphorylation in TCR+c-MPL+ T cells; assay type: cell-based, human; settings: TPO 50 ng/ml or EP 0.1 μg/ml, 1 or 24 hours; c-MPL- cells did not
Procedure: Similar results were obtained with the TPO small molecule agonist EP. A dose-titration experiment was used to determine the optimal concentration of EP to support c-MPL+ T cell expansion (FIG. 2C). EP was previously shown to inhibit leukemia cell proliferation at higher concentrations (1-10 μg/ml) by reduction of intracellular iron, a c-MPL independent effect (Roth et al., 2012). NT or c-MPL+ T cells were re-activated on OKT3/CD28-coated plates in the presence of different EP concentrations and expansion of viable T cells was determined after 7 days. […] Next, it was evaluated whether rhTPO enhanced the anti-tumor function of TCR+c-MPL+ T cells using two different HLA-A*0201+survivin+hematologic malignancies as targets (U266 multiple myeloma, BV173 leukemia) (FIGS. 2E-2F). […]
Cells were stained ith antibodies and analyzed by flow cytometry. […] Cell viability was assessed by 7-AAD staining. T cells and tumor cell populations from co-culture assays were quantified by adding CountBright Beads (Invitrogen) to the analysis. T cell memory marker expression on CD8+ T cells re-covered from co-cultures was analyzed by staining cells with FITC-, PE-, ECD-, PerCP-, APC-, APC-AF750, or V450-conjugated Abs against CD45RO, CD45RA, CD62L, CCR7, CD110, mCβ, CD19, and 7AAD. […]

[6] = system: TCR+c-MPL+ T cells; assay: RNA-sequencing and GSEA of sequential killer T cells; assay type: cell-based, human; settings: after 3 BV173 challenges, rhTPO 50 ng/mL or EP 0.1 μg/mL
Text: Total RNA was extracted from T cells of 3 independent donors, purified after sequential co-culture in no cytokine, rhTPO or EP (see above and FIG. 4A) using the RNeasy Mini Kit (Qiagen). T cell purification consisted of either dead cell removal alone (see above) or dead cell removal followed by FACS sorting (FACS Aria, BD, Flow Cytometry Core Laboratory at the Texas Children's Hospital Feigin Center), to achieve a >98% T cell purity and T cell viability of >90%. Total RNA samples were sent to GENEWIZ for library preparation and next generation sequencing, with 30 million reads per sample at a 1×50 base pair configuration.
RNA-Seq was performed in triplicates from 3 independent donors for all 3 conditions (control, rhTPO and EP; see main text). Fastq files were aligned to the transcriptome using HiSat2 with default parameters (Kim et al., 2015). Following alignment and quality control analysis, one replicate of the control dataset was removed due to poor signal to noise ratio. Transcripts were assembled and FPKM values were generated using cuffquant and cuffnorm from the cufflinks software suite (Trapnell et al., 2010) Active transcripts were defined as transcripts with a normalized FPKM value greater than 1 in at least one sample. […]

[7] = system: c-MPL downstream signaling in c-MPL+ T cells; assay: Phosflow for pSTAT5, c-MPL downstream signaling; assay type: cell-based, human; settings: rhTPO 5 and 50 ng/ml; EP 0.1 μg/ml; 1 or 24 hours
Procedure: as §1

[8] = system: NT T cells; assay: Expansion of non-transduced (NT) T cells in TPO; assay type: cell-based, human; settings: cell number from 3×10^6 cells, TPO 50 ng/ml, mean±SD, n=4
Procedure: (§2) […] Transient retroviral supernatant was prepared by transfection of 293T cells and activated T cells were transduced as described (Arber et al., 2015). The number of retroviral integrants in TCR+c-MPL+ T cells was estimated by quantitative PCR. Whole PBMC's were isolated from fresh buffy coats by Lymphoprep (Axis-Shield) density gradient centrifugation. If required, CD8+ T cells were isolated from PBMCs using magnetic beads and columns (Miltenyi Biotec). […]
(§3) Cells were stained ith antibodies and analyzed by flow cytometry. […] Cell viability was assessed by 7-AAD staining. T cells and tumor cell populations from co-culture assays were quantified by adding CountBright Beads (Invitrogen) to the analysis. T cell memory marker expression on CD8+ T cells re-covered from co-cultures was analyzed by staining cells with FITC-, PE-, ECD-, PerCP-, APC-, APC-AF750, or V450-conjugated Abs against CD45RO, CD45RA, CD62L, CCR7, CD110, mCβ, CD19, and 7AAD. […] To assess cell proliferation, cells were labeled with Carboxyfluorescein succinimidyl ester (CFSE, ThermoFisher) and analyzed after 7 days of culture. […]

[9] = system: TCR+c-MPL+ T cells; assay: Antigen-specific expansion with survivin peptide-pulsed aAPCs, TCR+c-MPL+ T cells; assay type: cell-based, human; settings: rhTPO 5, 50, 500 ng/ml, two stimulations
Procedure: aAPCs (described above) were pulsed with the […] survivin peptide (Genemed Synthesis), irradiated at 100 cGy, and used to stimulate T cells at an E:T ratio of 4:1 with IL-2 (50 U/mL) or rhTPO (5 ng/mL, 50 ng/mL, or 500 ng/mL). At the end of the first stimulation (7 days), cells were collected, counted, phenotyped and re-stimulated with fresh peptide-pulsed aAPCs under the same conditions. Fold expansion was recorded at the end of the second stimulation.

[10] = system: BV173 leukemia cells; assay: Serial (sequential) co-culture with BV173 leukemia cells; assay type: cell-based, human
Procedure: Cells were stained ith antibodies and analyzed by flow cytometry. Cells were stained with FITC-, phycoerythrin- (PE-), peridinin chlorophyll protein-(PerCP-), or allophycocyanin-conjugated (APC-conjugated) antibodies (Abs) against CD3, CD4, CD8, CD110 (c-MPL), murine TCR constant region (mCβ, ebioscience), CD19, or CD138. Cell viability was assessed by 7-AAD staining. T cells and tumor cell populations from co-culture assays were quantified by adding CountBright Beads (Invitrogen) to the analysis. T cell memory marker expression on CD8+ T cells re-covered from co-cultures was analyzed by staining cells with FITC-, PE-, ECD-, PerCP-, APC-, APC-AF750, or V450-conjugated Abs against CD45RO, CD45RA, CD62L, CCR7, CD110, mCβ, CD19, and 7AAD. Intracellular staining for phosphoproteins pSTAT3 and pSTAT5 was performed with PE- and Pacific Blue-conjugated Abs and Phosflow reagents (BD). To assess cell proliferation, cells were labeled with Carboxyfluorescein succinimidyl ester (CFSE, ThermoFisher) and analyzed after 7 days of culture. All antibodies were purchased from BD or Beckman Coulter unless otherwise indicated, and all staining procedures were performed according to the manufacturer's recommendation. Data acquisition was performed on a BD FACSCalibur using CellQuest software or a Beckman Coulter Gallios flow cytometer using Kaluza software. Data analysis was performed with FlowJo software (Tree Star Inc.).
BV173 or U266B1 cells and T cells were co-cultured in up to eight replicate wells at various E:T ratios in CTL media with no cytokines, rhTPO (5 ng/mL or 50 ng/mL), or EP (0.1 μg/mL). […] Co-culture supernatants were harvested 24 hours after initial plating or tumor-cell add-back to replicate wells and stored at −80° C. for further analysis.

[11] = system: immune synapses between TCR+c-MPL+ T cells and BV173 leukemia cells; assay: Immunological synapse imaging (confocal microscopy); assay type: cell-based, human; settings: mean±SD
Procedure: T cells isolated from sequential killing co-cultures and fresh BV173 target cells were mixed at E:T 1:2, incubated for 10 minutes, fixed, permeabilized, stained with the appropriate antibodies, and analyzed on a Leica TCS SP8 laser scanning microscope. T cells were co-cultured with BV173 cells at an E:T ratio of 1:5 in CTL media with no cytokines, rhTPO (50 ng/mL) or EP (0.1 μg/mL). After one killing (no cytokine condition) or three sequential killings (rhTPO and EP conditions), cells were collected and dead cells removed (Dead Cell Removal Kit, Miltenyi) (FIG. 4A). For confocal microscopy, T cells and fresh BV173 target cells were mixed at E:T ratio of 1:2, incubated for ten minutes in a tube and ten minutes on silane-coated glass slides (Electron Microscopy Sciences) at 37° C. Cells were then permeabilized and fixed with Perm/Fix solution (BD) for 15 minutes at room temperature and stained with anti-Pericentrin (rabbit, Abcam) and anti-Perforin Alexa-488 (mouse, BD Biosciences) primary antibodies. Phalloidin 568 (Life Technologies) was used to detect F-actin. Cells were imaged as Z stacks of 0.2 μm thickness to cover their entire volume on a Leica TCS SP8 laser scanning microscope using a 100× objective. Images were acquired with the LASAF software (Leica) and analyzed with Imaris software (Imaris) and Fiji.

[12] = system: c-MPL+ T cells; assay: Expansion of polyclonal c-MPL+ T cells in TPO; assay type: cell-based, human; settings: cell number from 3×10^6 cells, TPO 50 ng/ml, mean±SD, n=4
Procedure: as §2, §3

[13] = after three tumor cell challenges
[14] = baseline after T cell expansion

| Molecule | T cell expansion in TPO 50 ng/ml (cell number by day 7 from 3x10^6 cells) [1] | antigen-specific expansion of TCR+ T cells [2] | T cell count in BV173 co-culture [3] | residual U266 cells ([4]; day 5, E:T 1:1, TCR+c-MPL+ T cells, noCK 43.3±1.1×10^5) | T cell count in U266 co-culture ([4]; day 5, E:T 1:1, noCK 1.84±0.31×10^5) | STAT3 and STAT5 phosphorylation in c-MPL+ cells [5] | cell cycle associated genes in T cells from treated co-cultures versus controls [6] | STAT5 phosphorylation in c-MPL+ T cells [7] | NT cells in TPO by day 7 [8] | antigen-specific expansion of TCR+c-MPL+ T cells [9] | T cell expansion in serial co-culture ([10]; E:T 1:5, versus no cytokines) | CD45RA+CD45RO+ and central memory cells among persistent T cells ([10]; serial co-culture) | Th1 cytokine production in sequential co-cultures ([10]; supernatants 24 hours after tumor cell challenge) | MTOC to synapse distance, co-culture [11, 13] | perforin distance to the synapse (perforin convergence), co-culture [11, 13] | actin accumulation at the synapse, co-culture ([11]; after three tumor cell challenges, rhTPO 50 ng/mL or EP 0.1 μg/mL) | MTOC to synapse distance, baseline [11, 14] | actin accumulation at the synapse, baseline [11, 14] | perforin distance to the synapse (perforin convergence), baseline [11, 14] | c-MPL+ cells in TPO by day 7 [12] |
| --- | --- | --- | --- | --- | --- | --- | --- | --- | --- | --- | --- | --- | --- | --- | --- | --- | --- | --- | --- | --- |
| recombinant human thrombopoietin (TPO) (from UniProt P40225 22-195) (ligand) | 7.44e+06 cells |  |  |  |  |  |  |  |  |  |  |  |  |  |  |  |  |  |  |  |
| B1 |  | not | 31.5±19.1×10^4 | 22.8±11.2×10^5 | 4.41±5.11×10^5 | phosphorylated | downregulated | occurred | 0.89±0.61×10^6 | expanded in a TPO-dose dependent manner | significantly enhanced | enrichment | sustained | 1.46±1.58 μm | 3.68±1.70 μm | 52.60±16.32% | 3.96±2.49 μm | 35.23±16.41% | 3.53±1.00 μm | 7.44±0.99×10^6 |
